According to publication PMC10272835, “Exploration of T cell immune responses by expression of a dominant-negative SHP1 and SHP2” (Frontiers in Immunology, 2023):

Columns and labels:
[1] = molecular target: phosphorylated PD1 ITSM peptide; test: ELISA; peptides coated at 0.5 µg/ml on Nunc MaxiSorp plates; His-tagged SH2 protein from 10 µg/ml with 1:3 serial dilutions in PBS 0.5% BSA; detected with anti-His-tag antibody, absorbance at 450 nm
[2] = molecular target: phosphorylated PD1 ITIM peptide; test: as above

| Substance | EC50 [1] | EC50 [2] |
| --- | --- | --- |
| dual SH2 domains of SHP2 (domain or fragment) | 1.24 nM | 1.69 nM |
| N-terminal SH2 domain of SHP2 (domain or fragment) | 4.58 nM | 12 nM |
| C-terminal SH2 domain of SHP1 (domain or fragment) | 1.69 nM | 33.7 nM |
| dual SH2 domains of SHP1 (domain or fragment) | 15.3 nM | 21.4 nM |
| C-terminal SH2 domain of SHP2 (domain or fragment) | 1.85 nM | 5.56 nM |
